Experimental data published in US20200199241A1 (Chugai, published 2020).
Changes are numbered by the printed parent chain. Names may count otherwise.

T1: human FcγRIIa(H) (human, UniProt P12318 36-217)
T1 construct: also called FcgRIIaH; FcγRIIa type H
T1 sequence: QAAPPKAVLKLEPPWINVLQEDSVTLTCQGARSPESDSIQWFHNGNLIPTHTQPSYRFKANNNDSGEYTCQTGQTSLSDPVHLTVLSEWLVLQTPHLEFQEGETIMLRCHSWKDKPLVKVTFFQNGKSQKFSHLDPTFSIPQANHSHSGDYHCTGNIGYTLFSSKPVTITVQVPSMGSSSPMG

T2: human FcγRIIb (human, UniProt P31994 43-217, limits assumed)
T2 construct: also called FcgRIIb
T2 sequence: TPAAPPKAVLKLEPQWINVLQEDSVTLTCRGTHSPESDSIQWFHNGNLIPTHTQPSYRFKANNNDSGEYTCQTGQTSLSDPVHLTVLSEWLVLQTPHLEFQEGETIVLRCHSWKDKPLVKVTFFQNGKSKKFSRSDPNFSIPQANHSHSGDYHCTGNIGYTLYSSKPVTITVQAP

B1: GpH7-B3 variant L234G/GpL16-k0 (antibody, human IgG1)
heavy: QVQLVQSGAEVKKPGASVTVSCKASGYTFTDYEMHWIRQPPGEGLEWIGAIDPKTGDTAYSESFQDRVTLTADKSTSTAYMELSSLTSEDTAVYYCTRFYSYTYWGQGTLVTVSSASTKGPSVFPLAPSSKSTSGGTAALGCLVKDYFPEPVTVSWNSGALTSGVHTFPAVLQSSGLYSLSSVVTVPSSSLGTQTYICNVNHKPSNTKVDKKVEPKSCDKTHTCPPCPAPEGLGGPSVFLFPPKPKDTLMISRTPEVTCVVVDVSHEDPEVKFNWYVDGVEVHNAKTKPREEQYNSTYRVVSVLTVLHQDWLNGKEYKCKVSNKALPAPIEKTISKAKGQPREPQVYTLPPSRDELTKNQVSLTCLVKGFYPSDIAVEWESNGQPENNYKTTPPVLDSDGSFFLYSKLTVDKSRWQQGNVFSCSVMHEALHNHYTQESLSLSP
light: DIVMTQSPLSLPVTPGEPASISCQASESLVHSNRNTYLHWYLQKPGQSPQLLIYKVSNRFSGVPDRFSGSGSGTDFTLKISRVEAEDVGVYYCSQNTHVPPTFGQGTKVEIE
notes: copies: 2 + 2
B2: GpH7-B3 variant S239R/GpL16-k0 (antibody, human IgG1)
heavy: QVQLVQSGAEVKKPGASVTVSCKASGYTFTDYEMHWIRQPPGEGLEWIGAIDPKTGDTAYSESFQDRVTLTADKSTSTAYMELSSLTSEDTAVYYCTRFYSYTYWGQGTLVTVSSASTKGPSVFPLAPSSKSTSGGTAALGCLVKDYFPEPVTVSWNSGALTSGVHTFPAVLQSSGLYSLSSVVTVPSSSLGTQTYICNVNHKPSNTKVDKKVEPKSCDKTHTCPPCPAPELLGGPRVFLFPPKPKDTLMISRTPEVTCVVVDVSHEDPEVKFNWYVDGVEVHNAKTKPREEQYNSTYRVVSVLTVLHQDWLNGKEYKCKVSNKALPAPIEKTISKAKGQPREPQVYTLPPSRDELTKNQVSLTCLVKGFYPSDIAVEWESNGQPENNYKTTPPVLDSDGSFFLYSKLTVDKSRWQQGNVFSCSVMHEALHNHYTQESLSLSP
light: B1 light
notes: copies: 2 + 2
B3: GpH7-B3 variant G237P/GpL16-k0 (antibody, human IgG1)
heavy: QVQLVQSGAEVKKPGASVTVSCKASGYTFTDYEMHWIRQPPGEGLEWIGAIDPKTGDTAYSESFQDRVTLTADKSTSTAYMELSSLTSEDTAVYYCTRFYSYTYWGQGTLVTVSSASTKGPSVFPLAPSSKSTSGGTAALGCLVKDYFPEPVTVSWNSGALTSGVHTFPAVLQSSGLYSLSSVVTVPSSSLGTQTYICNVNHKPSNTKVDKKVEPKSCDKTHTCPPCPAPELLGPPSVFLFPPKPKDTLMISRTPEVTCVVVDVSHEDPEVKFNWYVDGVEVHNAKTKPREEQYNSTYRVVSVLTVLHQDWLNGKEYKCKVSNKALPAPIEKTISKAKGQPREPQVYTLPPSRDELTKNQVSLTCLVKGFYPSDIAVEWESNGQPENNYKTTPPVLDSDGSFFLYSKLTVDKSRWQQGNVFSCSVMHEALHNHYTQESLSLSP
light: B1 light
notes: copies: 2 + 2
B4: GpH7-B3 variant G236K/GpL16-k0 (antibody, human IgG1)
heavy: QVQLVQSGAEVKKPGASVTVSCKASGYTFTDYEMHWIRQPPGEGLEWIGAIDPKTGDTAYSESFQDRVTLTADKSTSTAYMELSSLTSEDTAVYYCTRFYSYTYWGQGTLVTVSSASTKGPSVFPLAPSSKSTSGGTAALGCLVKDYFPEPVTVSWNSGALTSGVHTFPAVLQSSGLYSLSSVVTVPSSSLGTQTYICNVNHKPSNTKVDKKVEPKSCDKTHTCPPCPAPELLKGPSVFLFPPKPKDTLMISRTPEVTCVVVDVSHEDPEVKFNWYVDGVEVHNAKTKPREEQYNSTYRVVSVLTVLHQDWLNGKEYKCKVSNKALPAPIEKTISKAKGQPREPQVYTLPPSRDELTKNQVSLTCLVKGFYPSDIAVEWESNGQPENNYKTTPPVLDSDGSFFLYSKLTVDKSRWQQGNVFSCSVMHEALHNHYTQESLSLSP
light: B1 light
notes: copies: 2 + 2
B5: GpH7-B3 variant V266F/GpL16-k0 (antibody, human IgG1)
heavy: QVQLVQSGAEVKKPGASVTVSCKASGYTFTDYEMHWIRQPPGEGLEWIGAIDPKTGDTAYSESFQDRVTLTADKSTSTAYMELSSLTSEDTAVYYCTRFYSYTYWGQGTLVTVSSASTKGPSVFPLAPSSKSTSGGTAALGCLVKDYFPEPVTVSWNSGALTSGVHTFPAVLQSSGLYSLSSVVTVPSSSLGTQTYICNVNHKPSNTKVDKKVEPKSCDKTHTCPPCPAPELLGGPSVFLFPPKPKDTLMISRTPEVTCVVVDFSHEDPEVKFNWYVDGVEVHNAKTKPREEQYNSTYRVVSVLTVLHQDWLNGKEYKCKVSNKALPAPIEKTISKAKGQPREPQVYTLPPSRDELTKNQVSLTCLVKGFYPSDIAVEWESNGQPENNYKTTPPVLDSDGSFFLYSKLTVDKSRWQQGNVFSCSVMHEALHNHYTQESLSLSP
light: B1 light
notes: copies: 2 + 2
B6: IgG1-F1330 (antibody)
heavy: QVQLQESGPGLVKPSETLSLTCAVSGHSISHDHAWSWVRQPPGEGLEWIGFISYSGITNYNPSLQGRVTISRDNSKNTLYLQMNSLRAEDTAVYYCARSLARTTAMDYWGEGTLVTVSSASTKGPSVFPLAPSSKSTSGGTAALGCLVKDYFPEPVTVSWNSGALTSGVHTFPAVLQSSGLYSLSSVVTVPSSSLGTQTYICNVNHKPSNTKVDKKVEPKSCDKTHTCPPCPAPELRRGPKVFLFPPKPKDTLYISREPEVTCVVVDVSHEDPEVKFNWYVDGVEVHNAKTKPREEQYNSTYRVVSVLTVLHQDWLNGKEYKCKVSNKALPAPIEKTISKAKGQPREPQVYTLPPSRDELTKNQVSLTCLVKGFYPSDIAVEWESNGQPENNYKTTPPVLDSDGSFFLYSKLTVDKSRWQQGNVFSCSVMHEALHYHVTRKELSLSP
light: not shown
notes: EU numbering; copies: 2 + 2
B7: IgG1-F1361 (antibody)
heavy: B6 heavy with R238G, S256T, E258T, H435D, V438T
light: not shown
notes: EU numbering; copies: 2 + 2
B8: IgG1-F1376 (antibody)
heavy: B6 heavy with R238G, S256T, R440Q, E442S
light: not shown
notes: EU numbering; copies: 2 + 2
B9: IgG1-F1370 (antibody)
heavy: B6 heavy with R238G, S256T, H435D, R440K
light: not shown
notes: EU numbering; copies: 2 + 2
B10: IgG1-F1372 (antibody)
heavy: B6 heavy with R238G, S256T, H435D, V438T
light: not shown
notes: EU numbering; copies: 2 + 2
B11: IgG1-F1363 (antibody)
heavy: B6 heavy with R238G, S256T, E258T, H435D, V438F
light: not shown
notes: EU numbering; copies: 2 + 2
B12: IgG1-F1331 (antibody)
heavy: B6 heavy with S256T
light: not shown
notes: EU numbering; copies: 2 + 2
B13: IgG1-F1342 (antibody)
heavy: B6 heavy with R238G, V438T, R440K
light: not shown
notes: EU numbering; copies: 2 + 2
B14: IgG1-F1378 (antibody)
heavy: B6 heavy with R238G, E258T, V438T, R440Q, E442S
light: not shown
notes: EU numbering; copies: 2 + 2
B15: IgG1-F1371 (antibody)
heavy: B6 heavy with R238G, S256T, H435D
light: not shown
notes: EU numbering; copies: 2 + 2
B16: IgG1-F1349 (antibody)
heavy: B6 heavy with R238G, E258T, V438T
light: not shown
notes: EU numbering; copies: 2 + 2
B17: IgG1-F1354 (antibody)
heavy: B6 heavy with R238G, E258T, H435D, V438F, R440K
light: not shown
notes: EU numbering; copies: 2 + 2
B18: IgG1-F1368 (antibody)
heavy: B6 heavy with R238G, S256T, V438F, R440K
light: not shown
notes: EU numbering; copies: 2 + 2
B19: IgG1-F1367 (antibody)
heavy: B6 heavy with R238G, S256T, V438T
light: not shown
notes: EU numbering; copies: 2 + 2
B20: IgG1-F1343 (antibody)
heavy: B6 heavy with R238G, S256T, V438T, R440K
light: not shown
notes: EU numbering; copies: 2 + 2
B21: IgG1-F1362 (antibody)
heavy: B6 heavy with R238G, S256T, E258T, H435D, V438F, R440K
light: not shown
notes: EU numbering; copies: 2 + 2
B22: IgG1-F1348 (antibody)
heavy: B6 heavy with S256T, R440K
light: not shown
notes: EU numbering; copies: 2 + 2
B23: IgG1-F1359 (antibody)
heavy: B6 heavy with R238G, S256T, E258T, V438F
light: not shown
notes: EU numbering; copies: 2 + 2
B24: IgG1-F1347 (antibody)
heavy: B6 heavy with R440K
light: not shown
notes: EU numbering; copies: 2 + 2
B25: IgG1-F1338 (antibody)
heavy: B6 heavy with R238G, H435D, R440K
light: not shown
notes: EU numbering; copies: 2 + 2
B26: IgG1-F1337 (antibody)
heavy: B6 heavy with R238G, R440K
light: not shown
notes: EU numbering; copies: 2 + 2
B27: IgG1-F1351 (antibody)
heavy: B6 heavy with R238G, E258T, V438F
light: not shown
notes: EU numbering; copies: 2 + 2
B28: IgG1-F1379 (antibody)
heavy: B6 heavy with R238G, E258T, V438F, R440Q, E442S
light: not shown
notes: EU numbering; copies: 2 + 2
B29: IgG1-F1366 (antibody)
heavy: B6 heavy with R238G, H435D, V438F, R440K
light: not shown
notes: EU numbering; copies: 2 + 2
B30: IgG1-F1358 (antibody)
heavy: B6 heavy with R238G, S256T, E258T, V438F, R440K
light: not shown
notes: EU numbering; copies: 2 + 2
B31: IgG1-F1350 (antibody)
heavy: B6 heavy with R238G, E258T, V438F, R440K
light: not shown
notes: EU numbering; copies: 2 + 2
B32: IgG1-F1352 (antibody)
heavy: B6 heavy with R238G, E258T, H435D, V438T, R440K
light: not shown
notes: EU numbering; copies: 2 + 2
B33: IgG1-F1365 (antibody)
heavy: B6 heavy with R238G, H435D, V438T, R440K
light: not shown
notes: EU numbering; copies: 2 + 2
B34: IgG1-F1355 (antibody)
heavy: B6 heavy with R238G, E258T, H435D, V438F
light: not shown
notes: EU numbering; copies: 2 + 2
B35: IgG1-F1374 (antibody)
heavy: B6 heavy with R238G, S256T, H435D, V438F
light: not shown
notes: EU numbering; copies: 2 + 2
B36: IgG1-F1334 (antibody)
heavy: B6 heavy with E258T, R440K, E442D
light: not shown
notes: EU numbering; copies: 2 + 2
B37: IgG1-F1373 (antibody)
heavy: B6 heavy with R238G, S256T, H435D, V438F, R440K
light: not shown
notes: EU numbering; copies: 2 + 2
B38: IgG1-F1377 (antibody)
heavy: B6 heavy with R238G, R440Q, E442S
light: not shown
notes: EU numbering; copies: 2 + 2
B39: IgG1-F1344 (antibody)
heavy: B6 heavy with R238G, E258T, V438T, R440K
light: not shown
notes: EU numbering; copies: 2 + 2
B40: IgG1-F1346 (antibody)
heavy: B6 heavy with S256T, E258T, R440K
light: not shown
notes: EU numbering; copies: 2 + 2
B41: IgG1-F1360 (antibody)
heavy: B6 heavy with R238G, S256T, E258T, H435D, V438T, R440K
light: not shown
notes: EU numbering; copies: 2 + 2
B42: IgG1-F1357 (antibody)
heavy: B6 heavy with R238G, S256T, E258T, V438T
light: not shown
notes: EU numbering; copies: 2 + 2
B43: IgG1-F1336 (antibody)
heavy: B6 heavy with R440K, E442D
light: not shown
notes: EU numbering; copies: 2 + 2
B44: IgG1-F1375 (antibody)
heavy: B6 heavy with R238G, S256T, E258T, R440Q, E442S
light: not shown
notes: EU numbering; copies: 2 + 2
B45: IgG1-F1353 (antibody)
heavy: B6 heavy with R238G, E258T, H435D, V438T
light: not shown
notes: EU numbering; copies: 2 + 2
B46: IgG1-F1341 (antibody)
heavy: B6 heavy with R238G, S256T, E258T, V438T, R440K
light: not shown
notes: EU numbering; copies: 2 + 2
B47: IgG1-F1345 (antibody)
heavy: B6 heavy with E258T, R440K
light: not shown
notes: EU numbering; copies: 2 + 2

The binders below were run against T1, human FcγRIIa(H) (assay: SPR (Biacore);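 further: antibody variants captured on sensor chip, Fcγ receptor flowed over at 25 °C, bound receptor normalized to amount of captured antibody, expressed relative to reference antibody set as 100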).
Procedure: (§1) Interaction between each modified antibody and Fcγ receptor prepared in the manner described above was analyzed using the BIACORE™ T100 surface plasmon resonance system (GE Healthcare), BIACORE™ T200 surface plasmon resonance system (GE Healthcare), BIACORE™ A100 surface plasmon resonance system or BIACORE™ 4000 surface plasmon resonance system. HBS-EP+ (GE Healthcare) was used for the running buffer, and measurements were carried out at 25° C. The chips used were chips in which antigen peptides, Protein A (Thermo Scientific), Protein A/G (Thermo Scientific) or Protein L (ACTIGEN® protein (Alltech or BioVision) were immobilized on the Series S Sensor Chip CMS (GE Healthcare) or Series S Sensor Chip CM4 (GE Healthcare) by amine coupling, or chips in which preliminarily biotinylated antigen peptides were allowed to interact and then immobilized on the Series S Sensor Chip SA (certified) (GE Healthcare). The target antibodies were captured on these sensor chips, Fcγ receptor diluted with the running buffer was allowed to interact, followed by measurement of the amount of bound antibody. The amounts bound were compared between antibodies. However, since the amount of Fcγ receptor bound depends on the amount of captured antibody, the values used for comparison were first corrected by dividing the amount of Fcγ receptor bound by the captured amount of each antibody. Through reaction with 10 mM glycine-HCl at pH 1.5, the sensor chips were regenerated by washing off antibody captured on the sensor chips and used repeatedly.
(§2) Binding strength was evaluated according to the following method based on the results of analyzing the interaction with each FcγR. […] That value was then further multiplied by 100, and the resulting value was used as an indicator of relative binding activity to each FcγR.

relative binding activity | Binder
11 % of GpH7-B3/GpL16-k0 | B1
13 % of GpH7-B3/GpL16-k0 | B2
0 % of GpH7-B3/GpL16-k0 | B3
18 % of GpH7-B3/GpL16-k0 | B4

The binders below were run against T2, human FcγRIIb (assay: SPR (Biacore);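 further: antibody variants captured on sensor chip, Fcγ receptor flowed over at 25 °C, bound receptor normalized to amount of captured antibody, expressed relative to reference antibody set as 100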).
Procedure: as §1, §2

relative binding activity | Binder
10 % of GpH7-B3/GpL16-k0 | B1
5 % of GpH7-B3/GpL16-k0 | B2
5 % of GpH7-B3/GpL16-k0 | B3
88 % of GpH7-B3/GpL16-k0 | B5
19 % of GpH7-B3/GpL16-k0 | B4

Each binder was assayed against T3, human FcγRIa (human, UniProt P12314 16-292, limits assumed) (assay: SPR (Biacore);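 further: antibody variants captured on sensor chip, Fcγ receptor flowed over at 25 °C, bound receptor normalized to amount of captured antibody, expressed relative to reference antibody set as 100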).
T3 construct: also called FcgRIa; FcγRI (CD64)
T3 sequence (P12314 16-292 limits assumed): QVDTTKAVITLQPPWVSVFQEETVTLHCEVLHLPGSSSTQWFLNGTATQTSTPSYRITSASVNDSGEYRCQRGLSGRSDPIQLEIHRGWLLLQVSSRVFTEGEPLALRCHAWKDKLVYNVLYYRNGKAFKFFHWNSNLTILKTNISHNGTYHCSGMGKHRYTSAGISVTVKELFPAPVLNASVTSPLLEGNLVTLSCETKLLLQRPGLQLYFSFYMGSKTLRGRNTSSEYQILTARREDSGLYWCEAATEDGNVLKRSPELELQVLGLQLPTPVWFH
Procedure: as §1, §2

relative binding activity | Binder
28 % of GpH7-B3/GpL16-k0 | B1
52 % of GpH7-B3/GpL16-k0 | B2
3 % of GpH7-B3/GpL16-k0 | B3
80 % of GpH7-B3/GpL16-k0 | B5
13 % of GpH7-B3/GpL16-k0 | B4

Each binder was assayed against T4, human FcγRIIIa(F) (human, UniProt P08637 17-208, limits assumed) (assay: SPR (Biacore);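 further: antibody variants captured on sensor chip, Fcγ receptor flowed over at 25 °C, bound receptor normalized to amount of captured antibody, expressed relative to reference antibody set as 100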).
T4 construct: also called FcgRIIIaF; allotype F158
T4 sequence (P08637 other isoform, or with tags, fused parts or gaps limits assumed): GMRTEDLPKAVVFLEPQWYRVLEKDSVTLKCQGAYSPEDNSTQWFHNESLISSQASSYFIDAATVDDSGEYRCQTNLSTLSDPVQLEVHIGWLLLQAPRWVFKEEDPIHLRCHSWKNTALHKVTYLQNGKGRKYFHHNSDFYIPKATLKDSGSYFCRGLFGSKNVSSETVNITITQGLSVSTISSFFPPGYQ
Procedure: as §1, §2

relative binding activity | Binder
11 % of GpH7-B3/GpL16-k0 | B1
1 % of GpH7-B3/GpL16-k0 | B2
0 % of GpH7-B3/GpL16-k0 | B3
2 % of GpH7-B3/GpL16-k0 | B5
1 % of GpH7-B3/GpL16-k0 | B4

Each binder was assayed against T5, soluble human FcRn complexed with β2-microglobulin (human, UniProt P61769 21-119, limits assumed) (assay: Biacore SPR, pH 7.0;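 further: test antibodies captured on a Protein L chip with human FcRn flowed over as analyte, KD obtained as the ratio of dissociation to association rate constants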).
T5 construct: also called hFcRn

Kd | Binder
103 nM | B6
352 nM | B7
90.9 nM | B8
91.4 nM | B9
228 nM | B10
190 nM | B11
77.5 nM | B12
251 nM | B13
361 nM | B14
109 nM | B15
336 nM | B16
229 nM | B17
54.9 nM | B18
179 nM | B19
201 nM | B20
141 nM | B21
55.2 nM | B22
128 nM | B23
71.4 nM | B24
104 nM | B25
74.1 nM | B26

Kd | Binder
162 nM | B27
285 nM | B28
117 nM | B29
90.7 nM | B30
118 nM | B31
393 nM | B32
314 nM | B33
247 nM | B34
120 nM | B35
104 nM | B36
86.7 nM | B37
82.7 nM | B38
396 nM | B39
85.9 nM | B40
312 nM | B41
281 nM | B42
71.8 nM | B43
103 nM | B44
433 nM | B45
322 nM | B46
105 nM | B47
